Source: patent publication US20170015742A1 (published 2017)

Experiments:
Assay in all cases: cell-based or functional assay
[1] = molecular target: recombinant human VEGF165 (human, UniProt P15692 207-395)
[2] = molecular target: recombinant human PDGF-BB (human, UniProt P01127 82-190)
Target sequence in this assay (P01127 82-190 limits assumed): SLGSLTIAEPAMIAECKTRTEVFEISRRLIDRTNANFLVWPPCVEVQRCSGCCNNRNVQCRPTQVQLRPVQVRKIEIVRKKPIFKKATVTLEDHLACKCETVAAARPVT

[3] = molecular target: recombinant human PDGF-BB (human, UniProt P01127 82-190); remark: listed apart in the source
Target sequence in this assay (P01127 82-190 limits assumed): as above

recombinant human VEGF165, sequence (P15692 other isoform, or with tags, fused parts or gaps limits assumed): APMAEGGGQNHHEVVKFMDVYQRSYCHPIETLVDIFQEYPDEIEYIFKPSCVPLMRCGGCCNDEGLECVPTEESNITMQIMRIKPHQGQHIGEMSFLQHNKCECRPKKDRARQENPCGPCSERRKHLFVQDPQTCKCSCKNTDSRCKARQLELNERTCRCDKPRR

Binder | Potency IC50 (nM) HMVEC-d hVEGF165 [1] [nM] | Potency IC50 (nM) NIH-3T3 hPDGF-BB [2] [nM] | NIH-3T3 hPDGF-BB Potency IC50 [3] [pM]
9A8.12-LS-9E8.4E DVD-Ig (PR-1577547) (bispecific antibody, human IgG1, kappa, L234A L235A) heavy: EVQLVQSGAEVKKPGASVKVSCKASGYTFTNYGMYWVRQAPGQGLEWMGWINTETGKPIYADDFKGRVTMTTDTSTSTAYMELRSLRSDDTAVYYCARVDYDGSFWFAYWGQGTLVTVSSASTKGPSVFPLAPEVTLRESGPALVKPTQTLTLTCTFSGFSLSTYGMGVGWIRQPPGKALEWLANIWWDDDKYYNPSLKNRLTISKDTSKNQVVLTMTNMDPVDTATYYCARIESIGTTYSFDYWGQGTMVTVSSASTKGPSVFPLAPSSKSTSGGTAALGCLVKDYFPEPVTVSWNSGALTSGVHTFPAVLQSSGLYSLSSVVTVPSSSLGTQTYICNVNHKPSNTKVDKKVEPKSCDKTHTCPPCPAPEAAGGPSVFLFPPKPKDTLMISRTPEVTCVVVDVSHEDPEVKFNWYVDGVEVHNAKTKPREEQYNSTYRVVSVLTVLHQDWLNGKEYKCKVSNKALPAPIEKTISKAKGQPREPQVYTLPPSREEMTKNQVSLTCLVKGFYPSDIAVEWESNGQPENNYKTTPPVLDSDGSFFLYSKLTVDKSRWQQGNVFSCSVMHEALHNAYTQKSLSLSPGK light: DTQLTQSPSSLSASVGDRVTITCRASESVSTVIHWYQQKPGKQPKLLIHGASNLESGVPSRFSGSGSGTDFTLTISSLQPEDFATYFCQQHWNDPPTFGQGTKLEIKRTVAAPEFVLTQSPGTLSLSPGERATLSCERSSGDIGESYVSWYQQKPGQAPRLVIYADDQRPSGIPDRFSGSGSGTDFTLTISRLEPEDFAVYYCQSYDINIDIVFGGGTKVEIKRTVAAPSVFIFPPSDEQLKSGTASVVCLLNNFYPREAKVQWKVDNALQSGNSQESVTEQDSKDSTYSLSSTLTLSKADYEKHKVYACEVTHQGLSSPVTKSFNRGEC | – | – | 133
9E8.4E-SL-9A8.12 DVD-Ig (PR-1577548) (bispecific antibody, human IgG1, kappa, L234A L235A) heavy: EVTLRESGPALVKPTQTLTLTCTFSGFSLSTYGMGVGWIRQPPGKALEWLANIWWDDDKYYNPSLKNRLTISKDTSKNQVVLTMTNMDPVDTATYYCARIESIGTTYSFDYWGQGTMVTVSSASTKGPEVQLVQSGAEVKKPGASVKVSCKASGYTFTNYGMYWVRQAPGQGLEWMGWINTETGKPIYADDFKGRVTMTTDTSTSTAYMELRSLRSDDTAVYYCARVDYDGSFWFAYWGQGTLVTVSSASTKGPSVFPLAPSSKSTSGGTAALGCLVKDYFPEPVTVSWNSGALTSGVHTFPAVLQSSGLYSLSSVVTVPSSSLGTQTYICNVNHKPSNTKVDKKVEPKSCDKTHTCPPCPAPEAAGGPSVFLFPPKPKDTLMISRTPEVTCVVVDVSHEDPEVKFNWYVDGVEVHNAKTKPREEQYNSTYRVVSVLTVLHQDWLNGKEYKCKVSNKALPAPIEKTISKAKGQPREPQVYTLPPSREEMTKNQVSLTCLVKGFYPSDIAVEWESNGQPENNYKTTPPVLDSDGSFFLYSKLTVDKSRWQQGNVFSCSVMHEALHNAYTQKSLSLSPGK light: EFVLTQSPGTLSLSPGERATLSCERSSGDIGESYVSWYQQKPGQAPRLVIYADDQRPSGIPDRFSGSGSGTDFTLTISRLEPEDFAVYYCQSYDINIDIVFGGGTKVEIKRTVAAPSVFIFPPDTQLTQSPSSLSASVGDRVTITCRASESVSTVIHWYQQKPGKQPKLLIHGASNLESGVPSRFSGSGSGTDFTLTISSLQPEDFATYFCQQHWNDPPTFGQGTKLEIKRTVAAPSVFIFPPSDEQLKSGTASVVCLLNNFYPREAKVQWKVDNALQSGNSQESVTEQDSKDSTYSLSSTLTLSKADYEKHKVYACEVTHQGLSSPVTKSFNRGEC | – | – | 147
9E8.4E-LS-9A8.12 (bispecific antibody, human IgG1, kappa, L234A L235A) heavy: EVTLRESGPALVKPTQTLTLTCTFSGFSLSTYGMGVGWIRQPPGKALEWLANIWWDDDKYYNPSLKNRLTISKDTSKNQVVLTMTNMDPVDTATYYCARIESIGTTYSFDYWGQGTMVTVSSASTKGPSVFPLAPEVQLVQSGAEVKKPGASVKVSCKASGYTFTNYGMYWVRQAPGQGLEWMGWINTETGKPIYADDFKGRVTMTTDTSTSTAYMELRSLRSDDTAVYYCARVDYDGSFWFAYWGQGTLVTVSSASTKGPSVFPLAPSSKSTSGGTAALGCLVKDYFPEPVTVSWNSGALTSGVHTFPAVLQSSGLYSLSSVVTVPSSSLGTQTYICNVNHKPSNTKVDKKVEPKSCDKTHTCPPCPAPEAAGGPSVFLFPPKPKDTLMISRTPEVTCVVVDVSHEDPEVKFNWYVDGVEVHNAKTKPREEQYNSTYRVVSVLTVLHQDWLNGKEYKCKVSNKALPAPIEKTISKAKGQPREPQVYTLPPSREEMTKNQVSLTCLVKGFYPSDIAVEWESNGQPENNYKTTPPVLDSDGSFFLYSKLTVDKSRWQQGNVFSCSVMHEALHNAYTQKSLSLSPGK light: EFVLTQSPGTLSLSPGERATLSCERSSGDIGESYVSWYQQKPGQAPRLVIYADDQRPSGIPDRFSGSGSGTDFTLTISRLEPEDFAVYYCQSYDINIDIVFGGGTKVEIKRTVAAPDTQLTQSPSSLSASVGDRVTITCRASESVSTVIHWYQQKPGKQPKLLIHGASNLESGVPSRFSGSGSGTDFTLTISSLQPEDFATYFCQQHWNDPPTFGQGTKLEIKRTVAAPSVFIFPPSDEQLKSGTASVVCLLNNFYPREAKVQWKVDNALQSGNSQESVTEQDSKDSTYSLSSTLTLSKADYEKHKVYACEVTHQGLSSPVTKSFNRGEC | – | 0.066 | –
9E8.4E-GS-9A8.12 (bispecific antibody, human IgG1, kappa, L234A L235A) heavy: EVTLRESGPALVKPTQTLTLTCTFSGFSLSTYGMGVGWIRQPPGKALEWLANIWWDDDKYYNPSLKNRLTISKDTSKNQVVLTMTNMDPVDTATYYCARIESIGTTYSFDYWGQGTMVTVSSGGGGSGGGGSEVQLVQSGAEVKKPGASVKVSCKASGYTFTNYGMYWVRQAPGQGLEWMGWINTETGKPIYADDFKGRVTMTTDTSTSTAYMELRSLRSDDTAVYYCARVDYDGSFWFAYWGQGTLVTVSSASTKGPSVFPLAPSSKSTSGGTAALGCLVKDYFPEPVTVSWNSGALTSGVHTFPAVLQSSGLYSLSSVVTVPSSSLGTQTYICNVNHKPSNTKVDKKVEPKSCDKTHTCPPCPAPEAAGGPSVFLFPPKPKDTLMISRTPEVTCVVVDVSHEDPEVKFNWYVDGVEVHNAKTKPREEQYNSTYRVVSVLTVLHQDWLNGKEYKCKVSNKALPAPIEKTISKAKGQPREPQVYTLPPSREEMTKNQVSLTCLVKGFYPSDIAVEWESNGQPENNYKTTPPVLDSDGSFFLYSKLTVDKSRWQQGNVFSCSVMHEALHNAYTQKSLSLSPGK light: EFVLTQSPGTLSLSPGERATLSCERSSGDIGESYVSWYQQKPGQAPRLVIYADDQRPSGIPDRFSGSGSGTDFTLTISRLEPEDFAVYYCQSYDINIDIVFGGGTKVEIKRGGSGGGGSGDTQLTQSPSSLSASVGDRVTITCRASESVSTVIHWYQQKPGKQPKLLIHGASNLESGVPSRFSGSGSGTDFTLTISSLQPEDFATYFCQQHWNDPPTFGQGTKLEIKRTVAAPSVFIFPPSDEQLKSGTASVVCLLNNFYPREAKVQWKVDNALQSGNSQESVTEQDSKDSTYSLSSTLTLSKADYEKHKVYACEVTHQGLSSPVTKSFNRGEC | – | 0.327 | –

The next lines start with the values.

Potency IC50 (nM) HMVEC-d hVEGF165 [1] [nM] | Potency IC50 (nM) NIH-3T3 hPDGF-BB [2] [nM] | NIH-3T3 hPDGF-BB Potency IC50 [3] [pM] | Binder
0.124 | 0.222 | – | AB014-GS6-9E8.4 VH-VK (bispecific antibody, human IgG1, kappa, L234A L235A) heavy: EVQLVESGGGLVQPGGSLRLSCAASGYTFTNYGMNWVRQAPGKGLEWVGWINTYTGEPTYAADFKRRFTFSLDTSKSTAYLQMNSLRAEDTAVYYCAKYPHYYGSSHWYFDVWGQGTLVTVSSASTKGPSVFPLAPSSKSTSGGTAALGCLVKDYFPEPVTVSWNSGALTSGVHTFPAVLQSSGLYSLSSVVTVPSSSLGTQTYICNVNHKPSNTKVDKKVEPKSCDKTHTCPPCPAPEAAGGPSVFLFPPKPKDTLMISRTPEVTCVVVDVSHEDPEVKFNWYVDGVEVHNAKTKPREEQYNSTYRVVSVLTVLHQDWLNGKEYKCKVSNKALPAPIEKTISKAKGQPREPQVYTLPPSREEMTKNQVSLTCLVKGFYPSDIAVEWESNGQPENNYKTTPPVLDSDGSFFLYSKLTVDKSRWQQGNVFSCSVMHEALHNAYTQKSLSLSPGKGGSGGGEVTLRESGPALVKPTQTLTLTCTFSGFSLSTYGMGVGWIRQPPGKALEWLANIWWDDDKYYNPSLKNRLTISKDTSKNQVVLTMTNMDPVDTATYYCARIESIGTTYSFDYWGQGTMVTVSSGGGGSGGGGSGGGGSEIVLTQSPGTLSLSPGERATLSCERSSGDIGDSYVSWYQQKPGQAPRLVIYADDQRPSGIPDRFSGSGSGTDFTLTISRLEPEDFAVYYCQSYDINIDIVFGGGTKVEIK light: not shown
0.13 | 0.066 | – | AB014-GS15-9E8.4 VH-VK (bispecific antibody, human IgG1, kappa, L234A L235A) heavy: EVQLVESGGGLVQPGGSLRLSCAASGYTFTNYGMNWVRQAPGKGLEWVGWINTYTGEPTYAADFKRRFTFSLDTSKSTAYLQMNSLRAEDTAVYYCAKYPHYYGSSHWYFDVWGQGTLVTVSSASTKGPSVFPLAPSSKSTSGGTAALGCLVKDYFPEPVTVSWNSGALTSGVHTFPAVLQSSGLYSLSSVVTVPSSSLGTQTYICNVNHKPSNTKVDKKVEPKSCDKTHTCPPCPAPEAAGGPSVFLFPPKPKDTLMISRTPEVTCVVVDVSHEDPEVKFNWYVDGVEVHNAKTKPREEQYNSTYRVVSVLTVLHQDWLNGKEYKCKVSNKALPAPIEKTISKAKGQPREPQVYTLPPSREEMTKNQVSLTCLVKGFYPSDIAVEWESNGQPENNYKTTPPVLDSDGSFFLYSKLTVDKSRWQQGNVFSCSVMHEALHNAYTQKSLSLSPGKGGSGGGGSGGGGSGGEVTLRESGPALVKPTQTLTLTCTFSGFSLSTYGMGVGWIRQPPGKALEWLANIWWDDDKYYNPSLKNRLTISKDTSKNQVVLTMTNMDPVDTATYYCARIESIGTTYSFDYWGQGTMVTVSSGGGGSGGGGSGGGGSEIVLTQSPGTLSLSPGERATLSCERSSGDIGDSYVSWYQQKPGQAPRLVIYADDQRPSGIPDRFSGSGSGTDFTLTISRLEPEDFAVYYCQSYDINIDIVFGGGTKVEIK light: not shown
0.095 | 0.063 | – | AB014-GS10-9E8.4 VH-VK (bispecific antibody, human IgG1, kappa, L234A L235A) heavy: EVQLVESGGGLVQPGGSLRLSCAASGYTFTNYGMNWVRQAPGKGLEWVGWINTYTGEPTYAADFKRRFTFSLDTSKSTAYLQMNSLRAEDTAVYYCAKYPHYYGSSHWYFDVWGQGTLVTVSSASTKGPSVFPLAPSSKSTSGGTAALGCLVKDYFPEPVTVSWNSGALTSGVHTFPAVLQSSGLYSLSSVVTVPSSSLGTQTYICNVNHKPSNTKVDKKVEPKSCDKTHTCPPCPAPEAAGGPSVFLFPPKPKDTLMISRTPEVTCVVVDVSHEDPEVKFNWYVDGVEVHNAKTKPREEQYNSTYRVVSVLTVLHQDWLNGKEYKCKVSNKALPAPIEKTISKAKGQPREPQVYTLPPSREEMTKNQVSLTCLVKGFYPSDIAVEWESNGQPENNYKTTPPVLDSDGSFFLYSKLTVDKSRWQQGNVFSCSVMHEALHNAYTQKSLSLSPGKGGSGGGGSGGEVTLRESGPALVKPTQTLTLTCTFSGFSLSTYGMGVGWIRQPPGKALEWLANIWWDDDKYYNPSLKNRLTISKDTSKNQVVLTMTNMDPVDTATYYCARIESIGTTYSFDYWGQGTMVTVSSGGGGSGGGGSGGGGSEIVLTQSPGTLSLSPGERATLSCERSSGDIGDSYVSWYQQKPGQAPRLVIYADDQRPSGIPDRFSGSGSGTDFTLTISRLEPEDFAVYYCQSYDINIDIVFGGGTKVEIK light: not shown
